Columns and labels:
crystal structure = target: the molecule itself; test: crystal structure
SEC-MALS = target: the molecule itself; test: SEC-MALS

| Protein | binding result (crystal structure) | binding result (SEC-MALS) |
| --- | --- | --- |
| Selenomethionine-substituted dARC1 CA (residues S39 to N205) (domain or fragment, D. melanogaster, selenomethionine in place of methionine) SRGKGNFSACTHSFGGTRDHDVVEEFIGNIETYKDVEGISDENALKGISLLFYGMASTWWQGVRKEATTWKEAIALIREHFSPTKPAYQIYMEFFQNKQDDHDPIDTFVIQKRALLAQLPSGRHDEETELDLLFGLLNIKYRKHISRHSVHTFKDLLEQGRIIEHNNPLE | binds |  |
| dARC1 CA F133A (domain or fragment, D. melanogaster) SRGKGNFSACTHSFGGTRDHDVVEEFIGNIETYKDVEGISDENALKGISLLFYGMASTWWQGVRKEATTWKEAIALIREHFSPTKPAYQIYMEFAQNKQDDHDPIDTFVIQKRALLAQLPSGRHDEETELDLLFGLLNIKYRKHISRHSVHTFKDLLEQGRIIEHNNPLE |  | binds |

From PMC6938703 (Science Advances, 2020)
